Results: patent US20210380994A1, “LACTOCOCCUS LACTIS EXPRESSION SYSTEM FOR DELIVERING PROTEINS EFFICACIOUS FOR THE TREATMENT OF EPITHELIAL BARRIER FUNCTION DISORDERS” (Second Genome, Inc., priority 2018, published 2021)

Tests used:
[1] = test system: C57BL/6 mice treated with DSS; test: therapeutic DSS model of inflammatory bowel disease, treatment after 7 days DSS (Examples 5, 13B); type: in vivo; details: for body weight change: 50 nmoles/kg, day 11, p<0.05; for colon weight to length ratio: p<0.01
Method: Following a 7-day acclimation period, the mice were provided with drinking water containing 2.5% DSS for 7 days. Fresh 2.5% DSS water was prepared every 2 days during the 7 day DSS administration. For this therapeutic DSS study, SG-11 used to treat the animals was fused at its N-terminus to a FLAG Tag (DYKDDDDK; SEQ ID NO:32).
On day 7, normal drinking water was restored and i.p. treatments of 50 nmole/kg of SG-11 ([…]) or Gly2-GLP2 (0.2 mg/kg) were initiated. Treatments were administered twice a day (b.i.d.), with a morning and evening dose (every 8 and 16 hours) for six days.
Body weight was measured daily during the morning treatment. The colon tissue was then harvested and length was measured in centimeters and the tissue was weighed. Fecal material was flushed from the colon and residual PBS removed by gently running the colon tissue through a pair of forceps. The colon tissue was then weighed and colon weight to length ratio in mg/mm was determined. Following weight measurements proximal and distal colon tissue was banked for RNA and protein analysis and the remaining tissues was fixed in 10% neutral buffered formalin for histopathology. Statistical analysis was performed by a one-way ANOVA compared to DSS+vehicle for serum 4KDa-FITC translocation, scrum LBP concentrations, colon length, and colon weight to length ratio, while a two-way ANOVA was performed for analysis of body weight. In all analysis, a Fisher's LSD test for multiple comparisons was used. Graphs represent data pooled from two experiments, and are plotted as mean±SEM.
Histopathology analysis was performed on proximal and distal colon tissues from the therapeutic DSS model described above. Proximal (FIG. 13A) and distal (FIG. 13B) colon scores (range 0-4) are presented as well as the total score for the colon which represents the sum of proximal and distal colon scores (Range 0-8) (FIG. 13C). LMA=Loss of mucosal architecture, Edema=Edema, INF=Inflammation, TMI=Transmural inflammation, MH=Mucosal hyperplasia, DYS=Dysplasia. Graphs represent data pooled from two independent experiments, and are plotted as mean±SEM. Statistical analysis was performed by a one-way ANOVA compared to DSS+vehicle followed by a Fisher's LSD test for multiple comparisons.
In the second experiment (Example 13B), mice were provided with drinking water containing 2.5% DSS for 7 days. […] Treatments were administered twice a day (b.i.d.), with a morning and evening dose (every 8 and 16 hours) for 4 days. For both the prophylactic and therapeutic models, fresh 2.5% DSS water was prepared every 2 days during the DSS administration.
At the end of each DSS model study, mice were fasted for 4 hours and then orally gavaged with 600 mg/kg 4KDa dextran labeled with FITC [4KDa-FITC]. One hour after the 4KDa-FITC gavage, mice were euthanized, blood was collected, and FITC signal was measured in serum. […] Data in both graphs are plotted as mean±SEM and each figure represent data from an individual experiment (n=10 per group).
Upon completion of the OSS models above. LBP levels were measured as an inflammation centric readout of barrier function following the protocol detailed in Example 5. Upon completion of both DSS models (Examples 13A and 13B), blood was collected and serum was isolated. LPS binding protein (LBP) levels were measured in serum using a commercially available ELISA Kit (Enzo Lift Sciences).

[2] = for precipitation: pH 5.2
Method: Effect of additives was also tested at the 3 different pH conditions: 150 mM NaCl (FIGS. 15A, 15D and 15G); 150 mM NaCl and 100 mM arginine (FIGS. 15B, 15E and 15H): and 150 mM NaCl and 0.5 M sorbitol (FIGS. 15C, 15F and 15I). Stability was analyzed by analytical SEC.
Effect of additives was also tested at the 3 different pH conditions: 150 mM NaCl (FIGS. 16A, 16D and 16G); 150 mM NaCl and 100 mM Arg (FIGS. 16B, 16E and 16H); and 150 mM NaCl and 0.5 M sorbitol (FIGS. 16C, 16F and 16I). Stability was analyzed by analytical SEC.

[3] = Example 5, 50 nmole/kg i.p. b.i.d. six days after 7 days DSS
[4] = Example 13B, 50 nmole/kg i.p. b.i.d. 4 days after 7 days DSS

B1: SG-11: Roseburia hominis protein comprising SEQ ID NO:3; tested as SEQ ID NO:5, SEQ ID NO:7 or FLAG-tagged SEQ ID NO:9 (protein, listed as Rosburia hominis)
chain: LEGEESVVYVGKKGVIASLDVETLDQSYYDETELKSYVDAEVEDYTAEHGKNAVKVESLKVEDGVAKLKMKYKTPEDYTAFNGIELYQGKVVASLAAGYVYDGEFARVEEGKVVGAATKQDIYSEDDLKVAIIRANTDVKVDGEICYVSCQNVKLTGKDSVSIRDGYYLETGSVTASVDVTGQESVGTEQLSGTEQMEMTGEPVNADDTEQTEAAAGDGSFETDVYTFIVYK
histopathology: inflammation and transmural inflammation scores ([1]; Example 5): no change
histopathology: loss of mucosal architecture score ([1]; Example 5): modest, but significant reduction
body weight [1, 3]: significant improvements
colon length [1, 3]: significant improvements
colon weight to length [1, 3]: significant improvements
serum LBP ([1]; Example 5, 50 nmole/kg i.p. b.i.d. six days after 7 days DSS, FLAG-tagged SG-11): no reduction in LBP
frequency of thick colons ([1]; Example 5, DSS+vehicle 88%, p<0.0001): 25%
colon length ([1]; Example 13B (FIG. 22B)): significant increase in the colon length
serum LBP [1, 4]: no reduction in LBP
body weight change ([1]; Example 13B): statistically improved body weight changes
colon weight to length ratio ([1]; Example 13B): significantly improved colon weight to length ratios
aggregate formation by analytical SEC ([2]; 100 mM arginine at pH 7.0): greatly suppressed
precipitation [2]: precipitated

B2: SG-11V5: variant of SEQ ID NO:7 with N53S, N83S, C147V, C151S (protein)
chain: MLEGEESVVYVGKKGVIASLDVETLDQSYYDETELKSYVDAEVEDYTAEHGKSAVKVESLKVEDGVAKLKMKYKTPEDYTAFSGIELYQGKVVASLAAGYVYDGEFARVEEGKVVGAATKQDIYSEDDLKVAIIRANTDVKVDGEIVYVSSQNVKLTGKDSVSIRDGYYLETGSVTASVDVTGQESVGTEQLSGTEQMEMTGEPVNADDTEQTEAAAGDGSFETDVYTFIVYK
modifications: Artificial variant of SG-11 (N53S, N83S, C147V, C151S)
colon length ([1]; Example 13B (FIG. 22B)): significant increase in the colon length
serum LBP [1, 4]: no reduction in LBP
body weight change ([1]; Example 13B): statistically improved body weight changes
colon weight to length ratio ([1]; Example 13B): significantly improved colon weight to length ratios
aggregation by analytical SEC ([2]; all conditions tested (pH 5.2, 7.0, 8.0; NaCl, arginine, sorbitol)): did not show a large amount of aggregation
precipitation [2]: precipitated
